{
  "source": "patent US20260139033A1",
  "about": "(PRANA THERAPIES, published 2026)",
  "binders": {"B1": {"name": "Candidate-26: Light chain C-terminal TRAP: Dupilumab-YTE_Linker-GS4_TSLP TRAP 2 [2 x TRAP 2] (bispecific antibody, human IgG4 S228P, kappa)", "heavy": "EVQLVESGGGLEQPGGSLRLSCAGSGFTFRDYAMTWVRQAPGKGLEWVSSISGSGGNTYYADSVKGRFTISRDNSKNTLYLQMNSLRAEDTAVYYCAKDRLSITIRPRYYGLDVWGQGTTVTVSSASTKGPSVFPLAPCSRSTSESTAALGCLVKDYFPEPVTVSWNSGALTSGVHTFPAVLQSSGLYSLSSVVTVPSSSLGTKTYTCNVDHKPSNTKVDKRVESKYGPPCPPCPAPEFLGGPSVFLFPPKPKDTLYITREPEVTCVVVDVSQEDPEVQFNWYVDGVEVHNAKTKPREEQFNSTYRVVSVLTVLHQDWLNGKEYKCKVSNKGLPSSIEKTISKAKGQPREPQVYTLPPSQEEMTKNQVSLTCLVKGFYPSDIAVEWESNGQPENNYKTTPPVLDSDGSFFLYSRLTVDKSRWQEGNVFSCSVMHEALHNHYTQKSLSLSLG", "light": "DIVMTQSPLSLPVTPGEPASISCRSSQSLLYSIGYNYLDWYLQKSGQSPQLLIYLGSNRASGVPDRFSGSGSGTDFTLKISRVEAEDVGFYYCMQALQTPYTFGQGTKLEIKRTVAAPSVFIFPPSDEQLKSGTASVVCLLNNFYPREAKVQWKVDNALQSGNSQESVTEQDSKDSTYSLSSTLTLSKADYEKHKVYACEVTHQGLSSPVTKSFNRGECGGGGSGGGGSGGGGSGGGGSESGYAQNGDLEDAELDDYSFSCYSQLEVNGSQHSLTCAFEDPDVNITNLEFEICGALVEVKCLNFRKLQEIYFIETKKFLLIGKSNICVKVGEKSLTCKKIDLTTIVKPEAPFDLSVVYREGANDFVVTFNTSHLQKKYVKVLMHDVAYRQEKDENKWTHVNLSSTKLTLLQRKLQPAAMYEIKVRSIPDHYFKGFWSEWSPSYYFRTPEINNSSGEMDGGSGGSGGSGGSGGSGGSGGSGGSGGSGGSGGSGGSGGSGGSGGSGGSGGSGGSGGSGGSGAAEGVQIQIIYFNLETVQVTWNASKYSRTNLTFHYRFNGDEAYDQCTNYLLQEGHTSGCLLDAEQRDDILYFSIRNGTHPVFTASRWMVYYLKPSSPKHVRFSWHQDAVTVTCSDLSYGDLLYEVQYRSPFDTEWQSKQENTCNVTIEGLDAEKCYSFWVRVKAMEDVYGPDTYPSDWSEVTCWQRGEIRDACAETPTPPKPKLSK", "notes": "The chains here are built from the component entries"}, "B2": {"name": "Candidate-21: TSLP TRAP 1_Linker-GS4_Dupilumab-YTE (bispecific antibody, human IgG4 S228P, kappa)", "heavy": "GAAEGVQIQIIYFNLETVQVTWNASKYSRTNLTFHYRFNGDEAYDQCTNYLLQEGHTSGCLLDAEQRDDILYFSIRNGTHPVFTASRWMVYYLKPSSPKHVRFSWHQDAVTVTCSDLSYGDLLYEVQYRSPFDTEWQSKQENTCNVTIEGLDAEKCYSFWVRVKAMEDVYGPDTYPSDWSEVTCWQRGEIRDACAETPTPPKPKLSKGGSGGSGGSGGSGGSGGSGGSGGSGGSGGSGGSGGSGGSGGSGGSGGSGGSGGSGGSGGSESGYAQNGDLEDAELDDYSFSCYSQLEVNGSQHSLTCAFEDPDVNITNLEFEICGALVEVKCLNFRKLQEIYFIETKKFLLIGKSNICVKVGEKSLTCKKIDLTTIVKPEAPFDLSVVYREGANDFVVTFNTSHLQKKYVKVLMHDVAYRQEKDENKWTHVNLSSTKLTLLQRKLQPAAMYEIKVRSIPDHYFKGFWSEWSPSYYFRTPEINNSSGEMDGGGGSGGGGSGGGGSGGGGSEVQLVESGGGLEQPGGSLRLSCAGSGFTFRDYAMTWVRQAPGKGLEWVSSISGSGGNTYYADSVKGRFTISRDNSKNTLYLQMNSLRAEDTAVYYCAKDRLSITIRPRYYGLDVWGQGTTVTVSSASTKGPSVFPLAPCSRSTSESTAALGCLVKDYFPEPVTVSWNSGALTSGVHTFPAVLQSSGLYSLSSVVTVPSSSLGTKTYTCNVDHKPSNTKVDKRVESKYGPPCPPCPAPEFLGGPSVFLFPPKPKDTLYITREPEVTCVVVDVSQEDPEVQFNWYVDGVEVHNAKTKPREEQFNSTYRVVSVLTVLHQDWLNGKEYKCKVSNKGLPSSIEKTISKAKGQPREPQVYTLPPSQEEMTKNQVSLTCLVKGFYPSDIAVEWESNGQPENNYKTTPPVLDSDGSFFLYSRLTVDKSRWQEGNVFSCSVMHEALHNHYTQKSLSLSLG", "light": "DIVMTQSPLSLPVTPGEPASISCRSSQSLLYSIGYNYLDWYLQKSGQSPQLLIYLGSNRASGVPDRFSGSGSGTDFTLKISRVEAEDVGFYYCMQALQTPYTFGQGTKLEIKRTVAAPSVFIFPPSDEQLKSGTASVVCLLNNFYPREAKVQWKVDNALQSGNSQESVTEQDSKDSTYSLSSTLTLSKADYEKHKVYACEVTHQGLSSPVTKSFNRGEC", "notes": "TRAP sits at the N-terminus of the heavy chain"}, "B3": {"name": "Candidate-22: TSLP TRAP 2_Linker-GS4_Dupilumab-YTE (bispecific antibody, human IgG4 S228P, kappa)", "heavy": "ESGYAQNGDLEDAELDDYSFSCYSQLEVNGSQHSLTCAFEDPDVNITNLEFEICGALVEVKCLNFRKLQEIYFIETKKFLLIGKSNICVKVGEKSLTCKKIDLTTIVKPEAPFDLSVVYREGANDFVVTFNTSHLQKKYVKVLMHDVAYRQEKDENKWTHVNLSSTKLTLLQRKLQPAAMYEIKVRSIPDHYFKGFWSEWSPSYYFRTPEINNSSGEMDGGSGGSGGSGGSGGSGGSGGSGGSGGSGGSGGSGGSGGSGGSGGSGGSGGSGGSGGSGGSGAAEGVQIQIIYFNLETVQVTWNASKYSRTNLTFHYRFNGDEAYDQCTNYLLQEGHTSGCLLDAEQRDDILYFSIRNGTHPVFTASRWMVYYLKPSSPKHVRFSWHQDAVTVTCSDLSYGDLLYEVQYRSPFDTEWQSKQENTCNVTIEGLDAEKCYSFWVRVKAMEDVYGPDTYPSDWSEVTCWQRGEIRDACAETPTPPKPKLSKGGGGSGGGGSGGGGSGGGGSEVQLVESGGGLEQPGGSLRLSCAGSGFTFRDYAMTWVRQAPGKGLEWVSSISGSGGNTYYADSVKGRFTISRDNSKNTLYLQMNSLRAEDTAVYYCAKDRLSITIRPRYYGLDVWGQGTTVTVSSASTKGPSVFPLAPCSRSTSESTAALGCLVKDYFPEPVTVSWNSGALTSGVHTFPAVLQSSGLYSLSSVVTVPSSSLGTKTYTCNVDHKPSNTKVDKRVESKYGPPCPPCPAPEFLGGPSVFLFPPKPKDTLYITREPEVTCVVVDVSQEDPEVQFNWYVDGVEVHNAKTKPREEQFNSTYRVVSVLTVLHQDWLNGKEYKCKVSNKGLPSSIEKTISKAKGQPREPQVYTLPPSQEEMTKNQVSLTCLVKGFYPSDIAVEWESNGQPENNYKTTPPVLDSDGSFFLYSRLTVDKSRWQEGNVFSCSVMHEALHNHYTQKSLSLSLG", "light": "DIVMTQSPLSLPVTPGEPASISCRSSQSLLYSIGYNYLDWYLQKSGQSPQLLIYLGSNRASGVPDRFSGSGSGTDFTLKISRVEAEDVGFYYCMQALQTPYTFGQGTKLEIKRTVAAPSVFIFPPSDEQLKSGTASVVCLLNNFYPREAKVQWKVDNALQSGNSQESVTEQDSKDSTYSLSSTLTLSKADYEKHKVYACEVTHQGLSSPVTKSFNRGEC", "notes": "The chains here are built from the component entries; TRAP sits at the N-terminus of the heavy chain"}},
  "key": {"recombinant human TSLP [1]": {"biological_target": "T1, recombinant human TSLP (human, UniProt Q969D9 29-159)", "T1 construct": "also called thymic stromal lymphopoietin", "assay": "SPR (Biacore 3000, CM5 chip, 25 C): complex captured via protein A, TSLP as analyte, 1:1 fit; column 'TSLP binding(pM)'", "protocol": "(§1) SPR studies were carried out on a Biacore 3000 instrument with a CM5 chip at 25° C. The running buffer comprised 25 mM Hepes, pH 7.5, 150 mM NaCl, 0.5 mg/ml BSA, 0.005% P20. Antibodies were captured via protein A using approximately a 1/50 dilution of each antibody in the running buffer and a 2-minute contact time at a 10 μl/min flow rate. Protein A was immobilized on a CM5 chip via standard amine coupling chemistry in 10 mM acetate pH 4.5. Approximately 800 RU of each antibody was captured. The surfaces were regenerated via a 10 mM glycine pH 1.5 between cycles. Between assays the chip was regenerated with a 2-minute pulse of 100 mM Phosphoric acid. Prior to setting up multicycle kinetic analysis analyte concentration was determined spectrophotometrically using an extinction coefficient of 72,880 M⁻¹ cm⁻¹ for IL4R and 18450 M⁻¹ cm⁻¹ for the TSLP proteins respectively. Analyte samples were prepared by diluting stocks into running buffer to a final concentration of 500 nM for the IL-4R and 25 nM for TSLP followed by serially diluting with a 2-fold series with an association time of 2.5 minutes at a 50 μl/min flow rate. Dissociation data was collected for a period of 1600 seconds. Raw data was analyzed using the Scrubber2 (Biologic Software, AU) program using a double referencing procedure where compound signal is corrected to a blank surface and a buffer injection over the captured antibody surface. Kinetic data was analyzed by fitting to a simple 1:1 binding model. […] The candidates are further described in Table 3."}, "[2]": {"biological_target": "T2, IL-4R on human donor PBMC (B-cells) (human, UniProt P24394 26-825)", "assay": "cell-based or functional assay"}, "recombinant human TSLP [3]": {"biological_target": "T1, recombinant human TSLP", "assay": "cell-based or functional assay"}, "recombinant human TSLP [4]": {"biological_target": "T1, recombinant human TSLP", "assay": "SPR; column 'SPR (Biophysical binding): TSLP (pM)'", "protocol": "as §1"}, "[5]": {"biological_target": "T2, IL-4R on human donor PBMC (B-cells)", "assay": "cell-based or functional assay", "remark": "listed apart in the source"}},
  "data": [
    {"binder": "B1", "values": [
      {"measurement": "Kd", "setting": "recombinant human TSLP [1]", "result": 8.3, "unit": "pM"},
      {"measurement": "IC50, CD23 upregulation on B cells of human PBMC in response to IL-4 (column 'Biological Assays: IL-4R (nM)')", "setting": "[2]", "result": "> 200", "unit": "nM"},
      {"measurement": "IC50, inhibition of TSLP responses (TARC secretion) in human PBMCs", "setting": "recombinant human TSLP [3]", "result": 7800, "unit": "pM"},
      {"measurement": "Kd", "setting": "recombinant human TSLP [4]", "result": 8.3, "unit": "pM"}
    ]},
    {"binder": "B2", "values": [
      {"measurement": "Kd", "setting": "recombinant human TSLP [1]", "result": 20.8, "unit": "pM"},
      {"measurement": "IC50, PBMC assay in response to TSLP (TARC secretion)", "setting": "recombinant human TSLP [3]", "result": 2300, "unit": "pM"},
      {"measurement": "IC50, IL-4 biological assay (CD23 upregulation in PBMCs)", "setting": "[5]", "result": "> 200", "unit": "nM"},
      {"measurement": "Kd", "setting": "recombinant human TSLP [4]", "result": 20.8, "unit": "pM"}
    ]},
    {"binder": "B3", "values": [
      {"measurement": "Kd", "setting": "recombinant human TSLP [1]", "result": 19, "unit": "pM"},
      {"measurement": "IC50, PBMC assay in response to TSLP (TARC secretion)", "setting": "recombinant human TSLP [3]", "result": 430, "unit": "pM"},
      {"measurement": "IC50, IL-4 biological assay (CD23 upregulation in PBMCs)", "setting": "[5]", "result": "> 200", "unit": "nM"},
      {"measurement": "Kd", "setting": "recombinant human TSLP [4]", "result": 19, "unit": "pM"}
    ]}
  ]
}
